Like-named read-outs stand apart in the source and are kept apart here.
How the values were obtained:
AUC [1] = assay: AUC
AUC [2] = assay: AUC; remark: listed apart in the source

| Substance | % aggregates (20-1000 S area) (AUC [1]) [%] | % monomer (1-20 S area) (AUC [1]) [%] | % aggregates (20-1000 S area) (AUC [2]) [%] | % monomer (1-20 S area) (AUC [2]) [%] | % aggregates (20-1000 S area), Hsp70 co-expressed (AUC [1]) [%] | % aggregates (20-1000 S area), average of all runs (AUC [1]) [%] | % monomer (1-20 S area), Hsp70 co-expressed (AUC [1]) [%] | % monomer (1-20 S area), average of all runs (AUC [1]) [%] |
| --- | --- | --- | --- | --- | --- | --- | --- | --- |
| GFP-HttQ28 (huntingtin exon 1 fragment with 28 glutamines fused to GFP, expressed in C. elegans) | 70 | 30 |  |  |  |  |  |  |
| GFP-HttQ74 (huntingtin exon 1 fragment with 74 glutamines fused to GFP, expressed in C. elegans) | 97 | 3 |  |  |  |  |  |  |
| HttQ25-eGFP (huntingtin exon 1 fragment with 25 glutamines fused to eGFP, expressed in D. melanogaster) | 66 | 34 | 65 | 35 | 62 | 64.7 | 38 | 35.3 |
| HttQ46-eGFP (huntingtin exon 1 fragment with 46 glutamines fused to eGFP, expressed in D. melanogaster) | 76 | 24 | 79 | 21 | 78 | 83.2 | 22 | 16.8 |
| HttQ72-eGFP (huntingtin exon 1 fragment with 72 glutamines fused to eGFP, expressed in D. melanogaster) | 93 | 7 | 90 | 10 |  | 93.3 |  | 6.7 |
| HttQ97-eGFP (huntingtin exon 1 fragment with 97 glutamines fused to eGFP, expressed in D. melanogaster) | 82 | 18 | 86 | 14 | 91 | 85.6 | 9 | 14.7 |

From PMC5639329
